In publication doi:10.1101/2023.01.20.524915 (bioRxiv, 2023):

Biological target: the molecule itself
Assay: cryo-EM structure

B1: human DNA polymerase theta helicase domain (Polθ-HLD), residues 67-940 (domain or fragment, UniProt O75417 67-940, looked up)
chain: DKLLLANWGLPKAVLEKYHSFGVKKMFEWQAECLLLGQVLEGKNLVYSAPTSAGKTLVAELLILKRVLEMRKKALFILPFVSVAKEKKYYLQSLFQEVGIKVDGYMGSTSPSRHFSSLDIAVCTIERANGLINRLIEENKMDLLGMVVVDELHMLGDSHRGYLLELLLTKICYITRKSASCQADLASSLSNAVQIVGMSATLPNLELVASWLNAELYHTDFRPVPLLESVKVGNSIYDSSMKLVREFEPMLQVKGDEDHVVSLCYETICDNHSVLLFCPSKKWCEKLADIIAREFYNLHHQAEGLVKPSECPPVILEQKELLEVMDQLRRLPSGLDSVLQKTVPWGVAFHHAGLTFEERDIIEGAFRQGLIRVLAATSTLSSGVNLPARRVIIRTPIFGGRPLDILTYKQMVGRAGRKGVDTVGESILICKNSEKSKGIALLQGSLKPVRSCLQRREGEEVTGSMIRAILEIIVGGVASTSQDMHTYAACTFLAASMKEGKQGIQRNQESVQLGAIEACVMWLLENEFIQSTEASDGTEGKVYHPTHLGSATLSSSLSPADTLDIFADLQRAMKGFVLENDLHILYLVTPMFEDWTTIDWYRFFCLWEKLPTSMKRVAELVGVEEGFLARCVKGKVVARTERQHRQMAIHKRFFTSLVLLDLISEVPLREINQKYGCNRGQIQSLQQSAAVYAGMITVFSNRLGWHNMELLLSQFQKRLTFGIQRELCDLVRVSLLNAQRARVLYASGFHTVADLARANIVEVEVILKNAVPFKSARKAVDEEEEAVEERRNMRTIWVTGRKGLTEREAAALIVEEARMILQQDLVEMGVQWNPCALLHSSTCSLTHSESEVKEHTFISQTKSSYKKLTSKNKS
stoichiometry N: 2
